Laboratory results published in patent US20240150484A1.

Experiments:
[1] = target: FcγRIIIa on natural killer cells in human PBMC (human) (UniProt P08637); experiment: cell-based or functional assay
[2] = target: His-tagged human FcγRIa monomeric ECD (Sino Biological) (human) (UniProt P12314); experiment: BLI, FcγR on Ni-NTA sensor, 1:1 global fit
[3] = target: His-tagged murine FcγRI monomeric ECD (Sino Biological) (murine) (UniProt P26151); experiment: BLI, FcγR on Ni-NTA sensor, 1:1 global fit
[4] = target: His-tagged biotinylated human FcγRIIa allotype 131H monomeric ECD (Sino Biological) (human) (UniProt P12318); experiment: BLI, FcγR on SA sensor, steady state
[5] = target: His-tagged biotinylated murine FcγRIIb monomeric ECD (Sino Biological) (murine) (UniProt P08101); experiment: BLI, FcγR on SA sensor, steady state
[6] = target: His-tagged biotinylated human FcγRIIIa allotype 158V monomeric ECD (Sino Biological) (human) (UniProt P08637); experiment: BLI, FcγR on SA sensor, steady state
[7] = target: His-tagged biotinylated murine FcγRIII monomeric ECD (Sino Biological) (murine) (UniProt P08508); experiment: BLI, FcγR on SA sensor, steady state
[8] = target: His-tagged biotinylated murine FcγRIV monomeric ECD (Sino Biological) (murine); experiment: BLI, FcγR on SA sensor, steady state
[9] = target: His-tagged biotinylated human FcγRIIb monomeric ECD (Sino Biological) (human) (UniProt P31994); experiment: BLI, FcγR on SA sensor, steady state
[10] = target: His-tagged biotinylated human FcγRIIIa allotype 158V monomeric ECD (Sino Biological) (human) (UniProt P08637); experiment: BLI, steady state; responses did not reach a plateau
[11] = target: His-tagged human FcγRIa monomeric ECD (Sino Biological) (human) (UniProt P12314); experiment: BLI, 1:1 global fit; analysis not optimal, <4 fits
[12] = target: His-tagged biotinylated human FcγRIIIa allotype 158V monomeric ECD (Sino Biological) (human) (UniProt P08637); experiment: BLI, steady state; responses did not reach a plateau; remark: listed apart in the source
[13] = target: His-tagged biotinylated murine FcγRIV monomeric ECD (Sino Biological) (murine); experiment: as above
[14] = target: His-tagged biotinylated murine FcγRIV monomeric ECD (Sino Biological) (murine); experiment: BLI
[15] = target: His-tagged murine FcγRI monomeric ECD (Sino Biological) (murine) (UniProt P26151); experiment: BLI, 1:1 global fit; analysis not optimal, <4 fits
[16] = target: His-tagged murine FcγRI monomeric ECD (Sino Biological) (murine) (UniProt P26151); experiment: BLI
[17] = target: His-tagged cynomolgus FcγRI monomeric ECD (R&D Systems) (cynomolgus (Macaca fascicularis)); experiment: BLI, FcγR on Ni-NTA sensor, 1:1 global fit
[18] = target: His-tagged biotinylated cynomolgus FcγRIIb monomeric ECD (Sino Biological) (cynomolgus (Macaca fascicularis)); experiment: BLI, FcγR on SA sensor, steady state
[19] = target: His-tagged biotinylated cynomolgus FcγRIII monomeric ECD (ACROBiosystems) (cynomolgus (Macaca fascicularis)) (UniProt Q8SPW2); experiment: BLI, FcγR on SA sensor, steady state
[20] = target: His-tagged biotinylated cynomolgus FcγRIIa monomeric ECD (Sino Biological) (cynomolgus (Macaca fascicularis)); experiment: BLI, FcγR on SA sensor, steady state

His-tagged biotinylated human FcγRIIIa allotype 158V monomeric ECD (Sino Biological) (human), sequence (P08637 17-208 F176V): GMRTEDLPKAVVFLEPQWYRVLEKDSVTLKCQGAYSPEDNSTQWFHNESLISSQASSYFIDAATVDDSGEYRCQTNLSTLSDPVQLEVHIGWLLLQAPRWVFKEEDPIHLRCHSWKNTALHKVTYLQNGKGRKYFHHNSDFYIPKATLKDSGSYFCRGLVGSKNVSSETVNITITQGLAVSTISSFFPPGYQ
His-tagged human FcγRIa monomeric ECD (Sino Biological) (human), sequence (P12314 16-292): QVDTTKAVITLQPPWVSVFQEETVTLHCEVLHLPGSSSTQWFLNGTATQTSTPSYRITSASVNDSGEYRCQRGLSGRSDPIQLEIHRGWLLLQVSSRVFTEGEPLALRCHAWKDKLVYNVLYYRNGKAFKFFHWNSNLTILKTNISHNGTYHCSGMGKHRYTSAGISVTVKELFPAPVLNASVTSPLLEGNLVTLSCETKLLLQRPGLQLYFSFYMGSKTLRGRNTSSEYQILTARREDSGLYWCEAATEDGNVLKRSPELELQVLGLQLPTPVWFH
His-tagged murine FcγRI monomeric ECD (Sino Biological) (murine), sequence (P26151 25-297): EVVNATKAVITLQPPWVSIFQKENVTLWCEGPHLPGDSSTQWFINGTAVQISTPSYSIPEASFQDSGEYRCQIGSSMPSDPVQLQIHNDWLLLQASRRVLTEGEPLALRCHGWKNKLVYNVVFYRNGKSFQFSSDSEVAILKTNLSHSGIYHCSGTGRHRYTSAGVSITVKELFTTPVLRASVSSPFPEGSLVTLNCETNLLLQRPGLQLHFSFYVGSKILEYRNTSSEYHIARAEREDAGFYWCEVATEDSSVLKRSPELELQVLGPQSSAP
His-tagged biotinylated murine FcγRIV monomeric ECD (Sino Biological) (murine), sequence (A0A0B4 entry or part of it limits assumed): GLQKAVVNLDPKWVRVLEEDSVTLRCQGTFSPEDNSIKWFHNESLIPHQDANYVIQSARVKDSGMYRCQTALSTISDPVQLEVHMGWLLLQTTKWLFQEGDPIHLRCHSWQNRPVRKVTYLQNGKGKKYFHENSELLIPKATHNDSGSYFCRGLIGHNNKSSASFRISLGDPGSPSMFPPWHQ
His-tagged biotinylated murine FcγRIIb monomeric ECD (Sino Biological) (murine), sequence (P08101 30-210): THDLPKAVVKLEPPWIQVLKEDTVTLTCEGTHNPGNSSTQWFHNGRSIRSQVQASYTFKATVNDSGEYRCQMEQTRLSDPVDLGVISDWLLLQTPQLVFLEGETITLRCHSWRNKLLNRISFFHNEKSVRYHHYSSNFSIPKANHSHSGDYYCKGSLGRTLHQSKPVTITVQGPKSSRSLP
His-tagged biotinylated murine FcγRIII monomeric ECD (Sino Biological) (murine), sequence (P08508 31-215): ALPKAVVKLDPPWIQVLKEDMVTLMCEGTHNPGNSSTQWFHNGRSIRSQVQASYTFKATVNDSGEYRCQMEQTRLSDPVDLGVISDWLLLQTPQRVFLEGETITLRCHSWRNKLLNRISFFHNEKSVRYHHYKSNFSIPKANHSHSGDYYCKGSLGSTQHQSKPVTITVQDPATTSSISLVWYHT
His-tagged biotinylated human FcγRIIb monomeric ECD (Sino Biological) (human), sequence (P31994 43-217): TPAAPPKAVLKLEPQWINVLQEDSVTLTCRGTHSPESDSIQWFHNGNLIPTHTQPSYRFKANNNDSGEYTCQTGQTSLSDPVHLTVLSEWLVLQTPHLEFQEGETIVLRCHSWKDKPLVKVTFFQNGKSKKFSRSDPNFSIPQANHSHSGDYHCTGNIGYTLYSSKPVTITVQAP
His-tagged biotinylated human FcγRIIa allotype 131H monomeric ECD (Sino Biological) (human), sequence (P12318 34-217): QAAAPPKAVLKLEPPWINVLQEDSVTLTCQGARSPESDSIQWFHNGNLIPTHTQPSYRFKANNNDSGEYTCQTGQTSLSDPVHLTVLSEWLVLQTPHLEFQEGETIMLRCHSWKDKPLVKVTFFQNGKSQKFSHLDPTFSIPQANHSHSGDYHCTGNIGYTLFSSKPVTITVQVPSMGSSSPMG
FcγRIIIa on natural killer cells in human PBMC (human), sequence (P08637 17-254): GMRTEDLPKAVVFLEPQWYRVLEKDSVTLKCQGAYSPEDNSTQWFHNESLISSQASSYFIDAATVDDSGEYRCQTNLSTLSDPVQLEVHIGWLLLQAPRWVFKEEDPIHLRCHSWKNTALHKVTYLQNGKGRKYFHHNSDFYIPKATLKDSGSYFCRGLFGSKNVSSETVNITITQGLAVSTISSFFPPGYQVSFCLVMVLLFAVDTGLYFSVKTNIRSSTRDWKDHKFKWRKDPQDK
His-tagged biotinylated cynomolgus FcγRIII monomeric ECD (ACROBiosystems) (cynomolgus (Macaca fascicularis)), sequence (Q8SPW2 17-208): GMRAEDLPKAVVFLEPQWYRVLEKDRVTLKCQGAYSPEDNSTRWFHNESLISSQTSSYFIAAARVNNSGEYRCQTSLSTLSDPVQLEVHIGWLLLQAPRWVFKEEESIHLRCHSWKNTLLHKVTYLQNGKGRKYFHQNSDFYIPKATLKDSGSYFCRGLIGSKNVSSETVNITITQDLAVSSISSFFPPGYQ

| Kd [2] | Kd [3] | koff [3] | kon [3] | Kd [5] | Kd [6] | Kd [7] | Kd [8] | Kd [15] | koff [15] | kon [15] | fold reduction of binding affinity vs wild-type IgG2a [16] | Substance | also measured |
| --- | --- | --- | --- | --- | --- | --- | --- | --- | --- | --- | --- | --- | --- |
| – | – | – | – | – | – | – | – | – | – | – | – | anti-human CD20 IgG1-L234F-L235E-G236R-K409R (antibody) | reduction of ADCC of Raji cells [1]: 69% |
| 1.27 nM | 3.82 nM | 0.000619 s⁻¹ | 162000 M⁻¹ s⁻¹ | 6400 nM | 1950 nM | 6900 nM | 145 nM | – | – | – | – | wild-type murine anti-human CD20 IgG2a antibody | koff [2]: 0.00039 s⁻¹; kon [2]: 311000 M⁻¹ s⁻¹; Kd [4]: 1850 nM; Kd [9]: 17000 nM |
| – | 238 nM | 0.00231 s⁻¹ | 9730 M⁻¹ s⁻¹ | – | – | – | – | – | – | – | – | murine anti-human CD20 IgG2a-L234A-L235A (antibody) | Kd [10]: 13800 nM; Kd [11]: 3610 nM; koff [11]: 0.0163 s⁻¹; kon [11]: 4530 M⁻¹ s⁻¹; Kd [12]: 11700 nM; Kd [13]: 13800 nM; fold reduction vs wt IgG2a [14]: 100 fold |
| – | – | – | – | – | – | – | – | 430 nM | 0.00227 s⁻¹ | 5300 M⁻¹ s⁻¹ | 100 fold | murine anti-human CD20 IgG2a-L234F-L235E-G236R (antibody) | – |
| – | – | – | – | – | – | – | – | 364 nM | 0.002 s⁻¹ | 5500 M⁻¹ s⁻¹ | 100 fold | murine anti-human CD20 IgG2a-L234A-L235A-P329G (antibody) | – |
| 1.84 nM | 124 nM | – | – | 2850 nM | 565 nM | 7450 nM | 1040 nM | – | – | – | – | wild-type anti-human CD20 IgG1 antibody (IgG1-CD20) | Kd [17]: 0.626 nM; Kd [18]: 3900 nM; Kd [19]: 415 nM; Kd [20]: 4250 nM |
